Data from patent US12359199B2, “Regulation of gene expression via aptamer-mediated control of self-cleaving ribozymes” (MEIRAGTX UK II LIMITED, priority 2016, dated 2025).

B1: es-twister: Twister ribozyme sequence from environmental sample cloned into the 3′ UTR in pEGFP-C1 vector (nucleic acid)
DNA: GTGACCGCCGCCGGGATCACTCTCGGCATGGACGAGCTGTACAAGTAAACCGCGGCAATAAAGCGGTTACAAGCCCGCAAAAATAGCAGAGTAATGTCGCGATAGCGCGGCATTAATGCAGCTTTATTGGCGGCCGCCATACCACATTTGTAGAGGTTTTACTTGCTTTAAAAAACCTCCCACACCTCCCCCTGAACCTGAAACATAAAATGAATGC
modifications: misc_feature 1..217 es-twister in pEGFPC1
B2: wasp-twister: Twister ribozyme sequence from N. vitripennis cloned into the 3′ UTR in pEGFP-C1 vector (nucleic acid)
DNA: GTGACCGCCGCCGGGATCACTCTCGGCATGGACGAGCTGTACAAGTAAACCGCGGCTTGTAATGCGGCCGTGTAAATAATTTACACGTCGGTCTCAAGCCCGATAAACGCAGAGAGCAAGGCGGCCGCCATACCACATTTGTAGAGGTTTTACTTGCTTTAAAAAACCTCCCACACCTCCCCCTGAACCTGAAACATAAAATGAATGC
modifications: misc_feature 1..208 wasp-twister in pEGFP-C1
B3: wasp-twister Mutant: Cleavage-incapable mutant wasp twister, A6 replaced with G, in 3′ UTR of pEGFP-C1 (nucleic acid)
DNA: GTGACCGCCGCCGGGATCACTCTCGGCATGGACGAGCTGTACAAGTAAACCGCGGCTTGTGATGCGGCCGTGTAAATAATTTACACGTCGGTCTCAAGCCCGATAAACGCAGAGAGCAAGGCGGCCGCCATACCACATTTGTAGAGGTTTTACTTGCTTTAAAAAACCTCCCACACCTCCCCCTGAACCTGAAACATAAAATGAATGC
modifications: misc_feature 1..208 wasp-twister-mut in pEGFP-C1
notes: Cleavage-incapable mutant wasp twister, A6 replaced with G, in 3′ UTR of pEGFP-C1
B4: GFP_wasp_no Sac 0HP: GFP wasp-twister construct with SacII sequence at 5′ end of twister deleted (nucleic acid)
DNA: GTGACCGCCGCCGGGATCACTCTCGGCATGGACGAGCTGTACAAGTAAACTTGTAATGCGGCCGTGTAAATAATTTACACGTCGGTCTCAAGCCCGATAAACGCAGAGAGCAAGGCGGCCGCCATACCACATTTGTAGAGGTTTTACTTGCTTTAAAAAACCTCCCACACCTCCCCCTGAACCTGAAACATAAAATGAATGC
modifications: misc_feature 1..202 wasp_no Sac 0HP in pEGFP-C1
B5: GFP_wasp_no Sac 3HP: GFP wasp-twister construct with SacII site replaced by CGC creating 3 base pair stem (3HP) at P1 stem (nucleic acid)
DNA: GTGACCGCCGCCGGGATCACTCTCGGCATGGACGAGCTGTACAAGTAAACGCCTTGTAATGCGGCCGTGTAAATAATTTACACGTCGGTCTCAAGCCCGATAAACGCAGAGAGCAAGGCGGCCGCCATACCACATTTGTAGAGGTTTTACTTGCTTTAAAAAACCTCCCACACCTCCCCCTGAACCTGAAACATAAAATGAATGC
modifications: misc_feature 1..205 wasp_no Sac 3HP in pEGFP-C1
notes: GFP wasp-twister construct with SacII site replaced by CGC creating 3 base pair stem (3HP) at P1 stem

Tested on: GFP expression in HEK 293 cells
Assay: GFP fluorescence intensity of transfected HEK 293 cells
Type: cell-based
Conditions: ribozyme in 3′ UTR of EGFP; for reduction (inhibition/suppression) of GFP expression / fold reduction (suppression) of GFP expression: compared to pEGFP-C1 control
From the text: Plasmid constructs: oligonucleotides containing wild type or mutant twister ribozyme sequences, either from Nasonia Vitripennis (wasp) or from environmental samples, flanked by BsrGI and MfeI sites, were synthesized (IDT). The synthesized oligonucleotides (“oligos”) were digested with BsrGI and MfeI and cloned into pEGFP-C1 (Clontech) digested with the compatible restriction enzymes. The sequences of the constructed vectors were verified by DNA sequencing (Genewiz).
Transfection and measurement of GFP fluorescence: 3.5×10^4 HEK 293 cells were plated in a 96-well flat bottom plate the day before transfection. Plasmid DNA (500 ng) was added to a tube or a 96-well U-bottom plate. Separately, TransIT-293 reagent (Mirus; 1.4 μl) was added to 50 μl Opti-mem I media (Life Technologies), and allowed to sit for 5 minutes at room temperature (“RT”). Then, 50 μl of this diluted transfection reagent was added to the DNA, mixed, and incubated at RT for 20 min. Finally, 7 μl of this solution was added to a well of cells in a 96-well plate. […] GFP fluorescence intensity was measured by Tecan plate reader, using Excitation wavelength at 484 nm, Emission wavelength at 510 nm and Excitation bandwidth at 5 nm. The GFP fluorescence intensity was expressed as the value generated by GFP constructs subtracted by the value generated by LacZ construct.
Measurement of GFP fluorescence intensity was performed as described in Example 1.

Molecule	effect on GFP expression (in words)	reduction (inhibition/suppression) of GFP expression	fold reduction (suppression) of GFP expression [fold]	also measured
B1	significantly reduced target gene expression	about 50%	–	–
B2	reduced expression of GFP	97%	36	fold reduction (suppression) of GFP expression (listed as GFP-twister): 37 fold; fold reduction (suppression) of GFP expression (listed as Wasp-twister): ~36 fold; reduction (inhibition/suppression) of GFP expression (listed as Wasp-twister): approximately 97%; fold reduction (suppression) of GFP expression (listed as wild type twister ribozyme): 44 fold
B3	did not cause a reduction in GFP expression	–	–	effect on GFP expression (in words) (listed as A6G mutation): completely abolished the suppression in GFP expression
B4	–	–	68	–
B5	–	–	104	–
